Assay results reported in patent US20250339532A1 (FATE THERAPEUTICS, published 2025).

Target: CD38 (UniProt P28907 1-300, limits assumed)
Test: cell-based or functional assay

B1: daratumumab (antibody, V domains shown)
VH: EVQLLESGGGLVQPGGSLRLSCAVSGFTFNSFAMSWVRQAPGKGLEWVSAISGSGGGTYYADSVKGRFTISRDNSKNTLYLQMNSLRAEDTAVYFCAKDKILWFGEPVFDYWGQGTLVTVSS
VL: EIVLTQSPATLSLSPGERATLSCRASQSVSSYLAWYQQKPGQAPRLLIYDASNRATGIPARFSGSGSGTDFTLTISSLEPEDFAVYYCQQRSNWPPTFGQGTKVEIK
Question: What does the source list for B1?
Answer: fold reduction of CD38+ T cell counts in co-cultures with daratumumab against the control condition: ~15 fold; fold reduction of CD38+ pbNK cell counts in co-cultures with daratumumab against the control condition: ~21 fold
